According to the supplement of paper PMC9112550, “Optimization of the antimicrobial peptide Bac7 by deep mutational scanning” (BMC Biology, 2022):

Each sequence was assayed on Escherichia coli TOP10 (assay: shrunken log2 fold change of peptide-encoding DNA abundance (4.5 h post-induction vs induction); higher = less antimicrobial activity (less host growth inhibition)). Conditions: time post-induction: 4.5 h; library: site-saturation at positions 5, 18, 19, 20.
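Also: peptides expressed intracellularly from a pBAD plasmid library in pooled LB shake-flask culture, induced with 0.3% L-arabinose, DNA abundance read by NGS, three biological replicates, DESeq2 with apeglm shrinkage.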

| Sequence | shrunken log2 fold change |
| --- | --- |
| RRIRVRPPRLPRPRPRPMPAPRP | 0.149 |
| RRIRVRPPRLPRPRPRPMRGPRP | 0.444 |
| RRIRVRPPRLPRPRPRPMRLPRP | 0.617 |
| RRIRVRPPRLPRPRPRPMSSPRP | 0.0619 |
| RRIRVRPPRLPRPRPRPMSTPRP | -0.268 |
| RRIRVRPPRLPRPRPRPMSYPRP | -0.0627 |
| RRIRVRPPRLPRPRPRPMTIPRP | -0.435 |
| RRIRVRPPRLPRPRPRPMVAPRP | -0.148 |
| RRIRVRPPRLPRPRPRPMVHPRP | 0.141 |
| RRIRVRPPRLPRPRPRPMWDPRP | -0.101 |
| RRIRVRPPRLPRPRPRPMYLPRP | -0.0313 |
| RRIRVRPPRLPRPRPRPMYMPRP | -0.748 |
| RRIRVRPPRLPRPRPRPNAIPRP | 0.0894 |
| RRIRVRPPRLPRPRPRPNCMPRP | -0.222 |
| RRIRVRPPRLPRPRPRPNDAPRP | -0.231 |
| RRIRVRPPRLPRPRPRPNDWPRP | -0.208 |
| RRIRVRPPRLPRPRPRPNEFPRP | -0.00739 |
| RRIRVRPPRLPRPRPRPNEIPRP | -0.52 |
| RRIRVRPPRLPRPRPRPNEPPRP | 0.097 |
| RRIRVRPPRLPRPRPRPNFGPRP | -0.098 |
| RRIRVRPPRLPRPRPRPNFHPRP | -0.115 |
| RRIRVRPPRLPRPRPRPNFMPRP | 0.0796 |
| RRIRVRPPRLPRPRPRPNGCPRP | 0.0454 |
| RRIRVRPPRLPRPRPRPNGIPRP | -0.161 |
| RRIRVRPPRLPRPRPRPNHQPRP | -0.221 |

| Sequence | shrunken log2 fold change |
| --- | --- |
| RRIRVRPPRLPRPRPRPNHTPRP | -0.402 |
| RRIRVRPPRLPRPRPRPNIGPRP | -0.0964 |
| RRIRVRPPRLPRPRPRPNIWPRP | -0.13 |
| RRIRVRPPRLPRPRPRPNKIPRP | -0.295 |
| RRIRVRPPRLPRPRPRPNKNPRP | 0.0192 |
| RRIRVRPPRLPRPRPRPNLAPRP | 0.0958 |
| RRIRVRPPRLPRPRPRPNLLPRP | -0.22 |
| RRIRVRPPRLPRPRPRPNLPPRP | 0.232 |
| RRIRVRPPRLPRPRPRPNMLPRP | -0.432 |
| RRIRVRPPRLPRPRPRPNNKPRP | -0.472 |
| RRIRVRPPRLPRPRPRPNPGPRP | -0.131 |
| RRIRVRPPRLPRPRPRPNQHPRP | -0.289 |
| RRIRVRPPRLPRPRPRPNQTPRP | -0.0286 |
| RRIRVRPPRLPRPRPRPNSCPRP | -0.394 |
| RRIRVRPPRLPRPRPRPNSGPRP | -0.496 |
| RRIRVRPPRLPRPRPRPNTLPRP | -0.478 |
| RRIRVRPPRLPRPRPRPNTVPRP | -0.0689 |
| RRIRVRPPRLPRPRPRPNTYPRP | -0.71 |
| RRIRVRPPRLPRPRPRPNVIPRP | -0.329 |
| RRIRVRPPRLPRPRPRPNVNPRP | -0.494 |
| RRIRVRPPRLPRPRPRPNWPPRP | 0.282 |
| RRIRVRPPRLPRPRPRPNYGPRP | -0.387 |
| RRIRVRPPRLPRPRPRPNYYPRP | -0.373 |
| RRIRVRPPRLPRPRPRPPAHPRP | 0.231 |
| RRIRVRPPRLPRPRPRPPAMPRP | 0.246 |

| Sequence | shrunken log2 fold change |
| --- | --- |
| RRIRVRPPRLPRPRPRPPCVPRP | -0.112 |
| RRIRVRPPRLPRPRPRPPDGPRP | 0.422 |
| RRIRVRPPRLPRPRPRPPHCPRP | 0.178 |
| RRIRVRPPRLPRPRPRPPHGPRP | -0.317 |
| RRIRVRPPRLPRPRPRPPHRPRP | 0.29 |
| RRIRVRPPRLPRPRPRPPIQPRP | -0.245 |
| RRIRVRPPRLPRPRPRPPIWPRP | -0.109 |
| RRIRVRPPRLPRPRPRPPKCPRP | -0.173 |
| RRIRVRPPRLPRPRPRPPKHPRP | 0.0761 |
| RRIRVRPPRLPRPRPRPPKRPRP | -0.193 |
| RRIRVRPPRLPRPRPRPPLFPRP | 0.256 |
| RRIRVRPPRLPRPRPRPPLQPRP | 0.272 |
| RRIRVRPPRLPRPRPRPPLTPRP | 0.119 |
| RRIRVRPPRLPRPRPRPPMQPRP | 0.152 |
| RRIRVRPPRLPRPRPRPPPAPRP | 1.07 |
| RRIRVRPPRLPRPRPRPPPVPRP | 0.767 |
| RRIRVRPPRLPRPRPRPPRAPRP | 0.641 |
| RRIRVRPPRLPRPRPRPPVKPRP | -0.112 |
| RRIRVRPPRLPRPRPRPPWMPRP | -0.0435 |
| RRIRVRPPRLPRPRPRPPWSPRP | 0.161 |
| RRIRVRPPRLPRPRPRPPWVPRP | 0.297 |
| RRIRVRPPRLPRPRPRPPYFPRP | 0.0499 |
| RRIRVRPPRLPRPRPRPQCFPRP | 0.00325 |
| RRIRVRPPRLPRPRPRPQCYPRP | -0.189 |
| RRIRVRPPRLPRPRPRPQDFPRP | 0.00129 |
